Data published in IntAct's records for PubMed 12925767.

B1: DASH complex subunit DAM1 (Saccharomyces cerevisiae), P53267 (parent)
chain: MSEDKAKLGTTRSATEYRLSIGSAPTSRRSSMGESSSLMKFADQEGLTSSVGEYNENTIQQLLLPKIRELSDSIITLDSNFTRLNFIHESLADLNESLGSLLYGIMSNSWCVEFSQAPHDIQDDLIAIKQLKSLEDEKNNLVMELSNMERGIKRKKDEQGENDLAKASQNKQFNQPLFPSSQVRKYRSYDNRDKRKPSKIGNNLQVENEEDYEDDTSSEASFVLNPTNIGMSKSSQGHVTKTTRLNNNTNSKLRRKSILHTIRNSIASGADLPIENDNVVNLGDLHPNNRISLGSGAARVVNGPVTKNRNSMFSGRAERKPTESRHSVAKKTEKKINTRPPFR

Variants of: B1
Conditions: with med21_yeast SRB7, P47822
med21_yeast SRB7, P47822, sequence (P47822 whole entry): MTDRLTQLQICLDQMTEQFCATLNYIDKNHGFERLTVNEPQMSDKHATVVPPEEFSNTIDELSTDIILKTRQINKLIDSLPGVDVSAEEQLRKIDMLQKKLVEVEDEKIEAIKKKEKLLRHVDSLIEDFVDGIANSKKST

Row | effect of a mutation on the interaction | Variant
1 | causing an interaction | MSEDKAKLGTTRSATEYRLDIGSAPTSRRSSMGESSSLMKFADQEGLTSSVGEYNENTIQQLLLPKIRELSDSIITLDSNFTRLNFIHESLADLNESLGSLLYGIMSNSWCVEFSQAPHDIQDDLIAIKQLKSLEDEKNNLVMELSNMERGIKRKKDEQGENDLAKASQNKQFNQPLFPSSQVRKYRSYDNRDKRKPSKIGNNLQVENEEDYEDDTSSEASFVLNPTNIGMSKSSQGHVTKTTRLNNNTNSKLRRKDILHTIRNDIASGADLPIENDNVVNLGDLHPNNRIDLGSGAARVVNGPVTKNRNSMFSGRAERKPTESRHSVAKKTEKKINTRPPFR [S20D;S257D;S265D;S292D]

Variants of: B1
Conditions: with nup82_yeast NUP82, P40368
nup82_yeast NUP82, P40368, sequence (P40368 whole entry): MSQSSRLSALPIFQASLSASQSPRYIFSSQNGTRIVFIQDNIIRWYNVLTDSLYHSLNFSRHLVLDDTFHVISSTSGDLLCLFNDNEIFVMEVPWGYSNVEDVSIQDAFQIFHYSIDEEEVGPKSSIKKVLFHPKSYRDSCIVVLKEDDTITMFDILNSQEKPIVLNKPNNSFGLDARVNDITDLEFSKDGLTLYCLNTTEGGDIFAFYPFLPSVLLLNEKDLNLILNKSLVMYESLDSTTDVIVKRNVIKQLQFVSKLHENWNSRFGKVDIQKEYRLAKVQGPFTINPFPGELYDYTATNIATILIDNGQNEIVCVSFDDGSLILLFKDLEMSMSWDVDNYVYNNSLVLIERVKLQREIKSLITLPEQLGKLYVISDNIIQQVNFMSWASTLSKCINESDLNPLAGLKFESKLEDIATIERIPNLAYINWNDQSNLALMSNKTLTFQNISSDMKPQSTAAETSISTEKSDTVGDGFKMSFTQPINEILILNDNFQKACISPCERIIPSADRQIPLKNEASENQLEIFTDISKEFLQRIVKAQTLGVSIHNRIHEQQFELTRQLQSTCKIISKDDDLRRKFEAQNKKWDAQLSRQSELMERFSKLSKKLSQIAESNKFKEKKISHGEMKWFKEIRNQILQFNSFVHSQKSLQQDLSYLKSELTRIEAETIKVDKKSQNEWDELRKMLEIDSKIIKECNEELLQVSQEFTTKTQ

Row | effect of a mutation on the interaction | Variant
2 | causing an interaction | MSEDKAKLGTTRSATEYRLAIGSAPTSRRSSMGESSSLMKFADQEGLTSSVGEYNENTIQQLLLPKIRELSDSIITLDSNFTRLNFIHESLADLNESLGSLLYGIMSNSWCVEFSQAPHDIQDDLIAIKQLKSLEDEKNNLVMELSNMERGIKRKKDEQGENDLAKASQNKQFNQPLFPSSQVRKYRSYDNRDKRKPSKIGNNLQVENEEDYEDDTSSEASFVLNPTNIGMSKSSQGHVTKTTRLNNNTNSKLRRKAILHTIRNAIASGADLPIENDNVVNLGDLHPNNRIALGSGAARVVNGPVTKNRNSMFSGRAERKPTESRHSVAKKTEKKINTRPPFR [S20A;S257A;S265A;S292A]

Variants of: B1
Conditions: with bmh1_yeast BMH1, P29311
bmh1_yeast BMH1, P29311, sequence (P29311 whole entry): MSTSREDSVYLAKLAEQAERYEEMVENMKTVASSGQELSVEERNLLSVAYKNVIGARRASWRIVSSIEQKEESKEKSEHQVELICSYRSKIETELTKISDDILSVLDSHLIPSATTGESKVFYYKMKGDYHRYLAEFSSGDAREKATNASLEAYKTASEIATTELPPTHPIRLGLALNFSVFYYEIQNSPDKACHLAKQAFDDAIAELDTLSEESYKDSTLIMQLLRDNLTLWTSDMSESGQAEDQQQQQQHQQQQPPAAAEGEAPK

Row | effect of a mutation on the interaction | Variant
3 | causing an interaction | MSEDKAKLGTTRSATEYRLAIGSAPTSRRSSMGESSSLMKFADQEGLTSSVGEYNENTIQQLLLPKIRELSDSIITLDSNFTRLNFIHESLADLNESLGSLLYGIMSNSWCVEFSQAPHDIQDDLIAIKQLKSLEDEKNNLVMELSNMERGIKRKKDEQGENDLAKASQNKQFNQPLFPSSQVRKYRSYDNRDKRKPSKIGNNLQVENEEDYEDDTSSEASFVLNPTNIGMSKSSQGHVTKTTRLNNNTNSKLRRKAILHTIRNAIASGADLPIENDNVVNLGDLHPNNRIALGSGAARVVNGPVTKNRNSMFSGRAERKPTESRHSVAKKTEKKINTRPPFR [S20A;S257A;S265A;S292A]
